Laboratory results reported in paper PMC3319868.
Read-outs that look alike come from different tables or passages of the source.

Columns and labels:
HIF-1α;ARNT (HIF-1β) [1] = target: T1, HIF-1α;ARNT (HIF-1β) (human;human?, UniProt Q16665;P27540 1-826;1-789, |); experiment: competition
HIF-1α;ARNT (HIF-1β) [2] = target: T1, HIF-1α;ARNT (HIF-1β); experiment: competition; remark: listed apart in the source

T1 sequence (Q16665 whole entry, chain 1 of 2): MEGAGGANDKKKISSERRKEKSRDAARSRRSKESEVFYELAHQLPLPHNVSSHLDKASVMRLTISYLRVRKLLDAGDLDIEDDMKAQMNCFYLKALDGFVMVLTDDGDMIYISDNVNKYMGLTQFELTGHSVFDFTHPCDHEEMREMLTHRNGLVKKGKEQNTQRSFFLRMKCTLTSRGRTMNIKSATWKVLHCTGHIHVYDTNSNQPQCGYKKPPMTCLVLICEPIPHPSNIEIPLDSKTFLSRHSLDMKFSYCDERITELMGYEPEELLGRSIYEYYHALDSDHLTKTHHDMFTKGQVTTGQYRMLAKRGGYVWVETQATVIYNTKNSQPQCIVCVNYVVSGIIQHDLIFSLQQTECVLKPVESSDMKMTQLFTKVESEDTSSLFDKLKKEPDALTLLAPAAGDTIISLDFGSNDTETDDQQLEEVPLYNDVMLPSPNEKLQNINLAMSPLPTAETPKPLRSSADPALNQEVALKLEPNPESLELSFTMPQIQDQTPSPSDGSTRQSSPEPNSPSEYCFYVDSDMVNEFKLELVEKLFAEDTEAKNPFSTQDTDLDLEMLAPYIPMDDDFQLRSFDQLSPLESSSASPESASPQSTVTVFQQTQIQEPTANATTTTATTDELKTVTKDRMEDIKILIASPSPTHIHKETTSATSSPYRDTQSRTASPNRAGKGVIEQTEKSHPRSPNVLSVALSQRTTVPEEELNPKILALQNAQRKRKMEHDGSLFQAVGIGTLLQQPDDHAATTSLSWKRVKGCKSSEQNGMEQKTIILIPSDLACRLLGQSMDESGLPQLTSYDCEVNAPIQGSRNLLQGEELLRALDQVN
T1 sequence (P27540 whole entry, chain 2 of 2): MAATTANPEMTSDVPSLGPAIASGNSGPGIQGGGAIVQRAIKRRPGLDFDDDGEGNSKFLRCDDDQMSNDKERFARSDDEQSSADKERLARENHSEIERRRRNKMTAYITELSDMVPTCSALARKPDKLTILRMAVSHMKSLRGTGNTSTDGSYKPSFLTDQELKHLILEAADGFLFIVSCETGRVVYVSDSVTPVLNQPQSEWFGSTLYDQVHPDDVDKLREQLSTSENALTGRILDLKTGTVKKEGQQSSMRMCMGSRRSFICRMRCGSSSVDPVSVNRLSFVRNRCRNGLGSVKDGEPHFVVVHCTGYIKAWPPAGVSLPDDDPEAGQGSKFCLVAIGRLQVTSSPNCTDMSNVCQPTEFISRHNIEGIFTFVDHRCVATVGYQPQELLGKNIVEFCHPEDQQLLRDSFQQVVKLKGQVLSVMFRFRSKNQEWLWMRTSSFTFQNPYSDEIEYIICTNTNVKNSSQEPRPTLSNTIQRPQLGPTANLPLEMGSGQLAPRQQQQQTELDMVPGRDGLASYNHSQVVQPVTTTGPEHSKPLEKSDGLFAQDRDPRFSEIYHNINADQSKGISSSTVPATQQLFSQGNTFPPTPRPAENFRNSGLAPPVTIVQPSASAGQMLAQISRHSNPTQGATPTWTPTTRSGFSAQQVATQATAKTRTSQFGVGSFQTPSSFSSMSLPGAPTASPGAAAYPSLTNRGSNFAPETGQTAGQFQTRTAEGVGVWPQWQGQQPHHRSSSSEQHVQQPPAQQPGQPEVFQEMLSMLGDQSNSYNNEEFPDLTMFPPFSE

Binder	binding result (HIF-1α;ARNT (HIF-1β) [1])	binding result (HIF-1α;ARNT (HIF-1β) [2])
mutated HRE (OL570/OL571) (dsDNA) DNA 1: AGCTTGCCCTAGCTGCTGTCTCAGA DNA 2: TCTGAGACAGCAGCTAGGGCAAGCT	no binding	
wild type HRE (OL568/OL569) (dsDNA) DNA 1: AGCTTGCCCTACGTGCTGTCTCAGA DNA 2: TCTGAGACAGCACGTAGGGCAAGCT		binds
